Assay results reported in US12624112 (MABWELL SHANGHAI BIOSCIENCE, dated 2026).
Blank lines part the entries; values can stand above or below the binder they belong to.

Key:
[1] = biological target: T1, ST2 on the effector cells (KU812, KU812/NF-κB-1#, HUVEC, HMC-1) (human, UniProt Q01638 19-556); test: cell-based or functional assay
T1 sequence (looked up): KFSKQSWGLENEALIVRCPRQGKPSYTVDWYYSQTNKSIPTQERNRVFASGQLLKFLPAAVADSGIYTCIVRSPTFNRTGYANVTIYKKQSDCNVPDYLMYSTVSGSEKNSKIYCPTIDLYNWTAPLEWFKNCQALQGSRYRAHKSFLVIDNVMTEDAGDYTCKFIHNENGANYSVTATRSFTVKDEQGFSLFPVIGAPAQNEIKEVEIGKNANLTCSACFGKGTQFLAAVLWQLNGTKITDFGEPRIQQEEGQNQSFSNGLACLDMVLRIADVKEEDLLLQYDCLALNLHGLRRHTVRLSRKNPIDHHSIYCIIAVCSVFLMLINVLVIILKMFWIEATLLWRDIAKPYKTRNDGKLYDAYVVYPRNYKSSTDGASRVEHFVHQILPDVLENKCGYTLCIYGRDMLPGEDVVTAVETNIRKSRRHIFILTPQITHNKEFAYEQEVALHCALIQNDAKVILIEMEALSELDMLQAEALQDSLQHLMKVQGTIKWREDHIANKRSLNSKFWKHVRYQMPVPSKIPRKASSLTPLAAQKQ

[2] = biological target: T1, ST2 on the effector cells (KU812, …); test: cell-based or functional assay; remark: listed apart in the source
Human ST2-his [3] = biological target: T2, Human ST2-his (human, UniProt Q01638-2 19-328, limits assumed); test: SPR Biacore X100, ratio of kd at pH 5.5 to kd at pH 7.4
T2 construct: Expressed in CHO-K1; The printed range starts at Met1; also called human ST2 fused with a 6-histidine tag at the C-terminus
T2 sequence: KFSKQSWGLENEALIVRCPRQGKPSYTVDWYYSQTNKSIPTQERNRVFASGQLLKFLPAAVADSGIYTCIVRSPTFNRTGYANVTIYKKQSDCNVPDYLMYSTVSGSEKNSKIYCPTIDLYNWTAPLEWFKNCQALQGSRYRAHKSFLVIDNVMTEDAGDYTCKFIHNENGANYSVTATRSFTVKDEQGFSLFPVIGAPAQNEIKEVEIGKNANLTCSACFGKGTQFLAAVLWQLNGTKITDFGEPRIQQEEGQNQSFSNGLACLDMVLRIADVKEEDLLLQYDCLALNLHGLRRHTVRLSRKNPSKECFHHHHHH
Description: (§1) The experiment on the interaction between the anti-human ST2 antibodies and human ST2-his was performed using Biacore X100.
(§2) Each anti-human ST2 antibody was diluted to 2 µg/mL and captured on the surface of a protein A chip for a capture time of 60 s. Following the antibody capture, a solution of human ST2-his (2-fold gradient dilution from a starting concentration of 20 nM, to obtain 6 concentrations in total) was injected. Association was monitored for 180 s and dissociation was monitored for 700 s, and the sensor surface was regenerated by injecting a solution of glycine at pH 2.0. Kinetic data were analyzed using a simple 1:1 binding model.

Human ST2-his [4] = biological target: T2, Human ST2-his; test: SPR Biacore X100, antibody captured on protein A chip, human ST2-his injected, dissociation at pH 5.5
Description: as §1, §2

[5] = biological target: T1, ST2 on the effector cells (KU812, …); test: cell-based or functional assay; remark: listed apart in the source
Human ST2-fc (human) = Human ST2-fc (human) (UniProt Q01638); test: competition ELISA, coated ST2-fc, competitor IL33-his
Human ST2-his [6] = biological target: T2, Human ST2-his; test: SPR Biacore X100, antibody captured on protein A chip, human ST2-his injected, pH 7.4
Description: as §1, §2

[7] = biological target: T1, ST2 on the effector cells (KU812, …); test: cell-based or functional assay; remark: listed apart in the source
[8] = biological target: T1, ST2 on the effector cells (KU812, …); test: cell-based or functional assay; remark: listed apart in the source
ST2 on KU812 cells [9] = biological target: T3, ST2 on KU812 cells (UniProt Q01638 19-556, limits assumed); test: cell-based or functional assay
T3 sequence (looked up): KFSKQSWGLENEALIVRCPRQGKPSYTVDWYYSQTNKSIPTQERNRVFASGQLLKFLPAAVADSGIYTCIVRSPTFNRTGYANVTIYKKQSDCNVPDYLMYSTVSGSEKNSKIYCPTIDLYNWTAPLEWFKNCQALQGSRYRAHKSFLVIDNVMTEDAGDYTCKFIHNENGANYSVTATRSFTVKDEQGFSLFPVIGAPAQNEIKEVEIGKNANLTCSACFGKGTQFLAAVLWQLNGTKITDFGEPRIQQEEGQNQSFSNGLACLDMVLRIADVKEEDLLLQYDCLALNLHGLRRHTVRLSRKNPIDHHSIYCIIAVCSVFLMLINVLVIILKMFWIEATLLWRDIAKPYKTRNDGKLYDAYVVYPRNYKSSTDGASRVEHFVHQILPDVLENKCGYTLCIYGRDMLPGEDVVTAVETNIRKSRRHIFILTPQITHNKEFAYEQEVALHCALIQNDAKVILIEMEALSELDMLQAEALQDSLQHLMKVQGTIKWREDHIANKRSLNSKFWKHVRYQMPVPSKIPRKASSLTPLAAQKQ

Human ST2-his [10] = biological target: T4, Human ST2-his (human, UniProt Q01638 19-328); test: SPR Biacore X100, antibody on protein A, ST2-his analyte
T4 construct: Expressed in CHO-K1; also called human ST2 fused with a 6-histidine tag at the C-terminus
T4 sequence: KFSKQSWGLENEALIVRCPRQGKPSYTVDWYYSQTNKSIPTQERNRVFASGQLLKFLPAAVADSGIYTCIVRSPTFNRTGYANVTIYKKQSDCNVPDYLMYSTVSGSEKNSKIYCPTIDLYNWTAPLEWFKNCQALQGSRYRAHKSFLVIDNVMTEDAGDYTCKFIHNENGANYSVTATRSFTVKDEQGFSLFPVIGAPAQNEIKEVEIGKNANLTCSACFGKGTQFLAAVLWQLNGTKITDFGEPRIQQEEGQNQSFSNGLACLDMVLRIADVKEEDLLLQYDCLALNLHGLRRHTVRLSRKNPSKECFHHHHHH
Description: On the basis of the results of the quantitative screenings of murine antibodies above together, 19 murine antibodies were selected for affinity determination and in vitro pharmacological study. The experiment on the interaction between the anti-human ST2 antibodies and human ST2-his was performed using Biacore X100, and was carried out at 25° C. in HBS-EP (1×) buffer (pH 7.4).
Each anti-human ST2 antibody was diluted to 10 nM and captured on the surface of a protein A chip (for a capture time of 60 s). […] Association was monitored for 4 min and dissociation for 10 min, and the sensor surface was regenerated by injecting a solution of glycine at pH 2.0. Data generated for kinetics and affinity assay were analyzed using BIAevaluation software.

Cyno ST2-fc [11] = biological target: T5, Cyno ST2-fc (cyno; human, UniProt A0A2K5UDB8 19-331); test: ELISA, coated cyno ST2-fc
T5 construct: also called cyno ST2 fused with a human IgG1 Fc tag at the C-terminus
T5 sequence: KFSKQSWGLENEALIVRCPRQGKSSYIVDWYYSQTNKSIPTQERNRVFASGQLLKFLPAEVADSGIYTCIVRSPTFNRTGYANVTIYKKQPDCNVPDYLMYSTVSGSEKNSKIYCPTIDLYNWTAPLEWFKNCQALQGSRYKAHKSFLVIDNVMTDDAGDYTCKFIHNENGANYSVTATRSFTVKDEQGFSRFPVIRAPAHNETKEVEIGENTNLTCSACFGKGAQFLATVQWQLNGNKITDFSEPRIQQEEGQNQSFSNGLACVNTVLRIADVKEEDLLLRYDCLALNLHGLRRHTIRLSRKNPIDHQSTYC
Description: Cyno ST2-fc was diluted with a coating buffer to 1 μg/mL, added into 96-well plates at 50 μL/well and coated overnight at 4° C. Next day, the coated plates were taken, washed with PB ST for 3 times, and then incubated using a blocking buffer at room temperature for 1 hr. Subsequently, the plates were washed with PBST for 3 times again. Starting at 1000 ng/mL, each murine antibody was diluted 3-fold to obtain serial dilutions of 8 concentrations in total which were then added into the 96-well plates at 50 μL/well. The plates were incubated at room temperature for 1 hr, washed with PB ST for 3 times; and then a goat anti-mouse secondary antibody (1:10000) was added at 50 μL/well into the 96-well plates which subsequently were incubated at room temperature for 1 hr. The 96-well plates were washed with PB ST for 3 times, and TMB was added at 50 μL/well to develop color in dark for 10 min. Afterwards, 2 M sulfuric acid was added to stop reaction; and GD values at 450 nm were read by a microplate reader. It can be seen that the murine antibodies can bind to cyno ST2, with a binding trendency consistent with the binding to human ST2.

ST2 on KU812 cells [12] = biological target: T3, ST2 on KU812 cells; test: cell-based or functional assay; remark: listed apart in the source
Cyno ST2-fc [13] = biological target: T5, Cyno ST2-fc; test: SPR Biacore X100, antibody on CM5, cyno ST2-fc analyte
Description: The experiment on the interactions between the anti-human ST2 antibodies and cyno ST2-fc was performed using Biacore X100, and was carried out at 25° C. in HBS-EP (1×) buffer (pH 7.4). Each antibody was immobilized on the surface of CM5 chip using an amino coupling kit. Following the antibody immobilization, a solution of cyno ST2-fc (2-fold gradient dilution from a starting concentration of 8 nM, to obtain 6 concentrations in total; the starting concentration might be increased if the signal of some sample was too low) was injected. Association was monitored for 2 min and dissociation for 10 min, and the sensor surface was regenerated by injecting a solution of glycine at pH 1.5.

Human ST2-his [14] = biological target: T4, Human ST2-his; test: ELISA, coated human ST2-his
Description: Human ST2-his was diluted with a coating buffer to 1 μg/mL, added into plates at 50 μL/well, and coated overnight at 4° C. Next day, the coated plates were taken, washed with PBST for 3 times, and then incubated using a blocking buffer at room temperature for 1 hr. Subsequently, the plates were washed with PBST for 3 times again. Starting at 100 ng/mL, each murine antibody was diluted 3-fold to obtain serial dilutions of 8 concentrations in total which were then added into the 96-well plates at 50 μL/well. The plates were incubated at room temperature for 1 hr, washed with PBST for 3 times; and then a goat anti-mouse secondary antibody (1:10000) was added at 50 μL/well into the 96-well plates which subsequently were incubated at room temperature for 1 hr. The 96-well plates were washed with PBST for 3 times, and TMVB was added at 50 μL/well to develop color in dark for 10 min. Afterwards, 2 M sulfuric acid was added to stop reaction; and GD values at 450 nm were read by a micro-plate reader.

IC50, inhibition of KU812-IL5 production promoted by oxidized IL33 [1]: 0.0228 µg/mL
Maximum inhibition rate, KU812-IL5 production by oxidized IL33 [1]: 101%
Relative activity, KU812-IL5 production by oxidized IL33 [1]: 96.8%
IC50, inhibition of HMC-1 IL8 production promoted by IL33 [2]: 0.23 µg/mL
Maximum inhibition rate, HMC-1 IL8 production by IL33 [2]: 90.2%
Relative activity, HMC-1 IL8 production by IL33 [2]: 43.8%
kd ratio of pH 5.5/pH 7.4 (Human ST2-his [3]): 11.9
Kd (Human ST2-his [4]): 1.67 nM
koff (Human ST2-his [4]): 0.00575 s⁻¹
kon (Human ST2-his [4]): 3.46e+06 M⁻¹ s⁻¹
IC50, inhibition of KU812-IL5 production promoted by IL-33 (human IL33-his) [5]: 0.0839 µg/mL
Maximum inhibition rate, KU812-IL5 production by IL-33 [5]: 98%
Relative activity compared with CNTO7160, KU812-IL5 production by IL-33 [5]: 121%
IC50 (Human ST2-fc (human)): 0.427 µg/mL
Maximum inhibition rate (Human ST2-fc (human)): 84.8%
Relative activity compared with CNTO7160 (Human ST2-fc (human)): 206%
Kd (Human ST2-his [6]): 0.495 nM
koff (Human ST2-his [6]): 0.000485 s⁻¹
kon (Human ST2-his [6]): 979000 M⁻¹ s⁻¹
IC50, inhibition of HUVEC-IL6 production promoted by IL33 [7]: 26.1 µg/mL
Maximum inhibition rate, HUVEC-IL6 production by IL33 [7]: 71.6%
Relative activity, HUVEC-IL6 production by IL33 [7]: 10.4%
IC50, inhibition of KU812-IL5 production promoted by reduced IL33 [8]: 2.87 µg/mL
Maximum inhibition rate, KU812-IL5 production by reduced IL33 [8]: 96.7%
Relative activity, KU812-IL5 production by reduced IL33 [8]: 51.1%
B1: 5888-379-H2L1 (antibody, human IgG4 S228P, kappa, V domains shown)
VH: QVQLVQSGAEVKKPGASVKVSCKASGYTFINYGMNWVRQAPGQRLEWMGWINTYIGEPTYGDNFKGRVTITRDTSASTAYMELSSLRSEDTAVYYCAREGDAFAYWGQGTLVTVSS
VL: DIQMTQSPSSLSASVGDRVTITCKSSQSLLYSGNQNNYLAWYQQKPGKVPKLLIYGASTRESGVPSRFSGSGSGTDFTLTISSLQPEDLATYYCQNDHSYPYTFGGGTKVEIKR
notes: Humanized antibody

Maximum inhibition rate (%), KU812 IL-5 production (ST2 on KU812 cells [9]): 92.7%
Relative activity (%), KU812 IL-5 production (ST2 on KU812 cells [9]): 19.2%
Kd (Human ST2-his [10]): 0.571 nM
koff (Human ST2-his [10]): 0.000546 s⁻¹
kon (Human ST2-his [10]): 957000 M⁻¹ s⁻¹
IC50 (Human ST2-fc (human)): 0.83 µg/mL
Relative activity (%) compared with CNTO7160 (Human ST2-fc (human)): 70.1%
EC50 (Cyno ST2-fc [11]): 0.0602 µg/mL
Relative activity (%) (Cyno ST2-fc [11]): 40.6%
IC50, activation of KU812-NF-κB reporter gene by IL33 (ST2 on KU812 cells [12]): 0.391 µg/mL
Relative activity (%) compared with CNTO7160, KU812-NF-κB reporter (ST2 on KU812 cells [12]): 64.2%
Kd (Cyno ST2-fc [13]): 0.0317 nM
koff (Cyno ST2-fc [13]): 0.000152 s⁻¹
kon (Cyno ST2-fc [13]): 4.78e+06 M⁻¹ s⁻¹
EC50 (Human ST2-his [14]): 0.0295 µg/mL
Relative activity (%) compared with CNTO7160 (Human ST2-his [14]): 33.9%
B2: 5888-379H1+L2 (antibody, V domains shown)
VH: QIQLAQSGPELKKPGETVKISCKASGYTFINYGMNWVKQAPGKDLKWMGWINTYIGEPTYGDNFKGRFAFSLETSASTVYLQINNLKNEDTATYFCAREGDGFAYWGQGTLVTVSA
VL: DIVMTQSPPSLSVSVGEKVTMSCKSSQSLLYSGNQNNYLAWYQQKPGQPPKLLIYGASTRESGVPDRFTGSGSGTDFTLTISSVQAEDLAVYYCQNDHSYPYTFGGGTKLEIK
notes: murine antibody
